In the supplement of paper PMC9732359:
± gives the uncertainty stated by the source.

Assay: protein stability index of a GFP-peptide fusion (yeast GPS) (PSI 1-4); higher = more stable; sorted into four equal gates, so the index is relative within each strain
In short: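 Tiled 17-residue yeast protein peptides were fused downstream of GFP in a plasmid that also expresses Cherry, and the pooled library was carried in yeast. Mid-log cultures in leucine-free medium were sorted into four equal gates by GFP/Cherry fluorescence ratio, and plasmids from each gate were PCR-amplified and Illumina-sequenced, with reads assigned to strains by barcodes. The protein stability index for each peptide was each gate's read frequency times its gate number, summed.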

Sequence | protein stability index (doa10∆) | protein stability index (pdr5∆) | protein stability index (san1∆) | protein stability index (ubr1∆)
KKLLINKDASLALQRGA [DPB4] | 2.62 ± 0.094 | 2.75 ± 0.12 | 2.44 ± 0.17 | 3.06 ± 0.092
TATYNDNMSEEQWLRQF [SNF2] | 3.28 ± 0.092 | 3.33 ± 0.12 | 3.27 ± 0.1 | 3.5 ± 0.089
AEKSFKPPKNKYKVVRR [SEC65] | 2.58 ± 0.18 | 3 ± 0.17 | 3.21 ± 0.071 | 3.16 ± 0.13
KNGLYQEAFKIYQHLAS [SRP72] | 1.81 ± 0.061 | 2.14 ± 0.11 | 2.33 ± 0.23 | 2.77 ± 0.091
KNAVVRSKFGGDFLDFQ [ARP7] | 3 ± 0.13 | 2.57 ± 0.12 | 3.31 ± 0.094 | 3.21 ± 0.083
SEYSSEASNTPIEHQFN [PRE7] | 3.16 ± 0.078 | 3.21 ± 0.072 | 3 ± 0.036 | 3.3 ± 0.1
YPLWVMAKQLIRLANES [CSN12] | 2.08 ± 0.07 | 1.41 ± 0.047 | 1.34 ± 0.17 | 1.4 ± 0.059
KNRRRIHGELKTYKEGI [SMC1] | 3.23 ± 0.13 | 3.35 ± 0.062 | 3.17 ± 0.095 | 3.18 ± 0.054
GNAVTVTEDGTVVTVVS [RPL22A] | 1.38 ± 0.044 | 1.67 ± 0.078 | 1.45 ± 0.11 | 1.84 ± 0.065
RKFALEKLYIFYKLNMP [SRP72] | 1.99 ± 0.046 | 1.79 ± 0.057 | 1.44 ± 0.085 | 1.29 ± 0.039
IVNVNFMKSVIRSREAF [DIS3] | 2.75 ± 0.065 | 2.77 ± 0.062 | 2.2 ± 0.098 | 2.31 ± 0.04
PLVGKPKTELTKGDSTP [YAR002W/NUP60] | 2.59 ± 0.061 | 2.9 ± 0.058 | 2.46 ± 0.086 | 2.83 ± 0.11
EFVHKYLGEGPRMVRDV [RPT3] | 3.39 ± 0.14 | 3.43 ± 0.084 | 3.14 ± 0.062 | 3.17 ± 0.077
RSLASFEQTAFSRHAQQ [SIR4] | 2.84 ± 0.059 | 2.73 ± 0.045 | 2.82 ± 0.05 | 2.77 ± 0.05
VDLTSSNFADSADYEIL [YDL116W/NUP84] | 2.84 ± 0.087 | 3.12 ± 0.098 | 3.31 ± 0.093 | 3.29 ± 0.09
DELELEDAIHIALLTLK [PRE8] | 3.04 ± 0.076 | 3.11 ± 0.065 | 3.07 ± 0.062 | 3.15 ± 0.087
RKLFPNWIKPSDSEIPP [PRP8] | 3.42 ± 0.16 | 2.89 ± 0.11 | 2.91 ± 0.069 | 2.97 ± 0.053
KGGIIASVGDILKTLER [YML031W/NDC1] | 2.99 ± 0.11 | 2.93 ± 0.09 | 3.32 ± 0.092 | 2.87 ± 0.13
GNGKLSEHFLYLAKELN [RPN1] | 3.06 ± 0.23 | 2.19 ± 0.18 | 2.42 ± 0.2 | 2.98 ± 0.29

Sequence | protein stability index (doa10∆) | protein stability index (pdr5∆) | protein stability index (san1∆) | protein stability index (ubr1∆)
EGLNQRNQVQTENVAQA [YGR119C/NUP57] | 2.96 ± 0.12 | 2.89 ± 0.16 | 2.77 ± 0.095 | 2.65 ± 0.06
QKCFKLTHRLGGDTCSS [POP1] | 2.27 ± 0.059 | 1.85 ± 0.056 | 2.55 ± 0.068 | 2.51 ± 0.054
AVAVVVDPIQSVKGKVV [RPN11] | 2.22 ± 0.1 | 2.64 ± 0.14 | 2.29 ± 0.094 | 2.84 ± 0.18
ASSLRFGNSLSNTVNAN [YDL088C/ASM4] | 2.81 ± 0.068 | 2.78 ± 0.075 | 2.65 ± 0.059 | 2.89 ± 0.074
SAAINNEDARAIFNNEF [RPN4] | – | 3.21 ± 0.23 | 3.04 ± 0.27 | –
EGNEKLAAVPAAGPASA [RPP2A] | 2.06 ± 0.061 | 2.23 ± 0.063 | 2.17 ± 0.09 | 2.79 ± 0.063
KMYDYEEKEESNLAATK [RPN11] | 3.17 ± 0.074 | 3.06 ± 0.082 | 2.87 ± 0.056 | 2.96 ± 0.1
SIQDTSTVAKNVSFVLP [YCG1] | 3.21 ± 0.11 | 2.92 ± 0.074 | 3.29 ± 0.08 | 3.04 ± 0.054
LEKDAADCQAELTKTKS [YIL149C/MLP2] | 2.94 ± 0.13 | 2.76 ± 0.26 | 2.75 ± 0.18 | 2.87 ± 0.1
KLKQGQKLFVQVSNFAP [GAL11] | 2.74 ± 0.063 | 2.81 ± 0.057 | 3.01 ± 0.051 | 2.84 ± 0.05
RTTTNTTAEPKAKRAKT [TAF14] | 2.67 ± 0.28 | 2.98 ± 0.25 | 3.1 ± 0.088 | 2.59 ± 0.2
DRFPLKLREPVARFLHF [ITC1] | 1.69 ± 0.076 | 1.7 ± 0.067 | 1.79 ± 0.12 | 1.91 ± 0.046
LRNVFLGKCSRITDASL [GRR1] | 2.94 ± 0.066 | 2.81 ± 0.097 | 2.68 ± 0.07 | 2.82 ± 0.05
YHGLYTNYEMSYWQKSY [LIN1] | 1.75 ± 0.046 | 2.08 ± 0.038 | 2.11 ± 0.055 | 2.17 ± 0.041
TEEVEALLQRLKTNGKQ [MTW1] | – | – | – | 3.23 ± 0.21
QTSVTTNFNEITNTDET [SWP82] | 2.84 ± 0.061 | 3.09 ± 0.051 | 2.86 ± 0.042 | 3.14 ± 0.039
MPGSQINSPMPQQAQMQ [SNF2] | 2.9 ± 0.081 | 2.87 ± 0.096 | 3.05 ± 0.07 | 2.95 ± 0.097
SLGSSSTTASGTTATGT [YGR119C/NUP57] | 3.08 ± 0.072 | 3.31 ± 0.076 | 3.08 ± 0.067 | 3.18 ± 0.067
TYASVTGLFTLERTDLK [RPN7] | 3.43 ± 0.23 | – | – | 2.62 ± 0.21

Sequence | protein stability index (doa10∆) | protein stability index (pdr5∆) | protein stability index (san1∆) | protein stability index (ubr1∆)
AYAQVEIQPRANIQLDF [FAS2] | 3.17 ± 0.061 | 3.06 ± 0.066 | 3.08 ± 0.057 | 3.16 ± 0.049
VGKLFRVGVVSILEAGD [RPL30] | 1.99 ± 0.097 | 1.36 ± 0.093 | 1.58 ± 0.17 | 1.67 ± 0.081
LIQKLQNSANNNSDDED [IRR1] | 2.98 ± 0.1 | 3.08 ± 0.074 | 3.26 ± 0.05 | 3.38 ± 0.083
YSPTSPSYSPTSPSYSP [RPO21] | 2.756 ± 0.027 | 2.976 ± 0.026 | 2.87 ± 0.024 | 2.868 ± 0.02
SAKQTAPNNSNGGSEEE [MED7] | 3.45 ± 0.27 | – | – | –
PRFNRDNKVSPAAAAKK [RPS26B] | 2.41 ± 0.12 | 2.5 ± 0.21 | 2.61 ± 0.11 | 2.76 ± 0.12
ESKFILEALRQNYRLDG [RRP45] | – | – | 2.95 ± 0.28 | –
VRLRSNVIKTGIRIISL [RPN3] | 2.27 ± 0.21 | 2.35 ± 0.14 | 2.22 ± 0.23 | 2.44 ± 0.065
AVAHHTDCKFIRVSGAE [RPT6] | 3.04 ± 0.13 | 3.21 ± 0.16 | 3.19 ± 0.14 | 2.92 ± 0.11
STNHPDYDVSKKASEIS [SRP14] | – | 3 ± 0.24 | – | –
PIMQTQMPLNSNGGNNM [SNF2] | 3 ± 0.059 | 2.92 ± 0.06 | 2.84 ± 0.057 | 2.62 ± 0.045
AEENLKKRIRLPSEERI [YIL149C/MLP2] | 2.89 ± 0.081 | 2.48 ± 0.066 | 2.61 ± 0.08 | 3.08 ± 0.044
TPPVVVVGVVGYVETPR [RPL3] | 1.81 ± 0.086 | 2.33 ± 0.068 | 1.46 ± 0.072 | 2.86 ± 0.17
TELSNKETTIEKLSSEI [YIL149C/MLP2] | 3.03 ± 0.073 | 2.96 ± 0.097 | 3.21 ± 0.072 | 3.13 ± 0.051
NGKIWVKCEELSNTLAC [RRP40] | 3.29 ± 0.12 | 3.24 ± 0.13 | 3.26 ± 0.067 | 3.6 ± 0.16
LRSDIPCLSRSCTKCPQ [DIS3] | 2.89 ± 0.04 | 2.94 ± 0.04 | 2.91 ± 0.031 | 2.92 ± 0.033
AHLAEIQLNGGSISEKV [RPL3] | – | – | – | 2.86 ± 0.12
LGPRGVSITPGKIEKIA [SRP21] | 2.02 ± 0.065 | 2.62 ± 0.049 | 1.98 ± 0.088 | 2.41 ± 0.039
